The target of the assay is non-covalent complex of the soluble extracellular domain of human neonatal Fc receptor (FcRn) with C-terminal His-Avi Tag and human beta-2-microglobulin, biotinylated (human) (UniProt P55899). Briefly: FcRn affinity chromatography, Fc part after IdeS cleavage and preparative SEC.
Sequence of non-covalent complex of the soluble extracellular domain of human neonatal Fc receptor (FcRn) with C-terminal His-Avi Tag and human beta-2-microglobulin, biotinylated (human) (P55899 other isoform, or with tags, fused parts or gaps limits assumed, chain 1 of 2): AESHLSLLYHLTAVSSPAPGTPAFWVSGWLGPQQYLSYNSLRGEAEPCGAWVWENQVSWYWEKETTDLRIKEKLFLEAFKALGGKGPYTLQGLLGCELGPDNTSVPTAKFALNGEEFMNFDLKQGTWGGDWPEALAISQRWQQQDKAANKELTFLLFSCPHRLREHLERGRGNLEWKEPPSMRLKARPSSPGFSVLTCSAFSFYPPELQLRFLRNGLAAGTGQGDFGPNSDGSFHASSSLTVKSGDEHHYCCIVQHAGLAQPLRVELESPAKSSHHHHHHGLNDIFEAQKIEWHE
Sequence of non-covalent complex of the soluble extracellular domain of human neonatal Fc receptor (FcRn) with C-terminal His-Avi Tag and human beta-2-microglobulin, biotinylated (human) (b2m, as listed by the source limits assumed, chain 2 of 2): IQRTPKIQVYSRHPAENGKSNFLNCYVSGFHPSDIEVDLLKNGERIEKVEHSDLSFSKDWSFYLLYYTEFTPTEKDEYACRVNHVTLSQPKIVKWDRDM

“Fc part of anti-Abeta antibody (YTE mutant)” came in with a retention time of 52 min.

Values taken from patent US20240124519A1.
